Two sequences from paper PMC9638939 can be followed below.

The subject of this data set is T1, hADAR2-R2D E488Q E488Q (Homo sapiens), P78563-2.
T1 sequence: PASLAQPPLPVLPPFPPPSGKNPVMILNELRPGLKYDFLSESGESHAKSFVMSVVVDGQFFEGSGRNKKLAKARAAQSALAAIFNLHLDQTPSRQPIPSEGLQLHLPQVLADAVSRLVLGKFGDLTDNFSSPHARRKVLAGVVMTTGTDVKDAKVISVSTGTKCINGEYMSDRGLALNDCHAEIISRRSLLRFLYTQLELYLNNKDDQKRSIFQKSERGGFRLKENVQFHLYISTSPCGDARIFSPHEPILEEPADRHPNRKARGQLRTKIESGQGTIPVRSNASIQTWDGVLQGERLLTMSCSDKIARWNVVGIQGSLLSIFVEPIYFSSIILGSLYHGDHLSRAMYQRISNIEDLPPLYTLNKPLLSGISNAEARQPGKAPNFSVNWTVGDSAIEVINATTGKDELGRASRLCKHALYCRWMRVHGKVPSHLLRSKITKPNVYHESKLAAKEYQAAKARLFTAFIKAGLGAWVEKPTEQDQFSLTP
The data set can be described thus: EMSA. As to conditions: N at position 13 of strand 1 = 8-azanebularine; EMSA: labeled strand hybridized to complement 1:3 in 1X TE pH 7.5; protein 0.25-256 nM (GG) or 0-260 nM (UA); binding buffer, salt and temperature not given in …. (In general: A gel shift assay detects complexes by their altered migration in electrophoresis.)

Usually Kd stands for the concentration at which binding is half-saturated. On to “GCUCGCGAUGCUNGAGGGCUCUGAUAGCUACG / CGUAGCUAUCAGAGCCCCCCAGCAUCGCGAGC [GLI1 (UA) 32mer, azaN]”, for which the Kd was determined as 0.9 nM.
For the sequence “GCUCGCGAUGCGNGAGGGCUCUGAUAGCUACG / CGUAGCUAUCAGAGCCCCCCGGCAUCGCGAGC [GLI1 (GG) 32mer, azaN]”, the dissociation constant (Kd) worked out at 6 nM.
